# Assay results: US20260069656A1, “Nutritive Polypeptides and Formulations Thereof, and Methods of Production and Use Thereof” (Axcella Health Inc., priority 2013, published 2026)
# B1: Deglycosylated SEQID-00363: SEQID-00363 with mannose glycans enzymatically reduced (protein)
# chain: ATLDSWLSNEATVARTAILNNIGADGAWVSGADSGIVVASPSTDNPDYFYTWTRDSGLVLKTLVDLFRNGDTSLLSTIENYISAQAIVQGISNPSGDLSSGAGLGEPKFNVDETAYTGSWGRPQRDGPALRATAMIGFGQWLLDNGYTSTATDIVWPLVRNDLSYVAQYWNQTGYDLWEEVNGSSFFTIAVQHRALVEGSAFATAVGSSCSWCDSQAPEILCYLQSFWTGSFILANFDSSRSGKDANTLLGSIHTFDPEAACDDSTFQPCSPRALANHKEVVDSFRSIYTLNDGLSDSEAVAVGRYPEDTYYNGNPWFLCTLAAAEQLYDALYQWDKQGSLEVTDVSLDFFKALYSDAATGTYSSSSSTYSSIVDAVKTFADGFVSIVETHAASNGSMSEQYDKSDGEQLSARDLTWSYAALLTANNRRNSVVPASWGETSASSVPGTCAATSAIGTYSSVTVTSWPSIVATGGTTTTATPTGSGSVTSTSKTTATASKTSTSTSSTSCTTPTAVAVTFDLTATTTYGENIYLVGSISQLGDWETSDGIALSADKYTSSDPLWYVTVTLPAGESFEYKFIRIESDDSVEWESDPNREYTVPQACGTSTATVTDTWR
# modifications: deglycosylated; Aspergillus niger
# Columns and labels:
# [1] = rat, in vivo
# Description: A rat pharmacokinetic study with oral administration of native and modified forms of SEQID-00363 was performed as described herein. The indigestible marker Cobalt-EDTA was formulated at 50 mg/L in the dosed protein solutions to monitor differences in intestinal transit rate between treatment groups and individual rats. Following the final blood collection (at t=4 h) rats were euthanized and the terminal ileum (20 cm of small intestine prior to the cecum) and its contents (the digesta) were collected into a pre-weighed tube. The ileum was flushed with saline and pooled with the digesta. The pH of the digesta was adjusted to ˜3.0 with HCl in order to inactivate all enzymes. The ileum samples were placed into separate pre-weighed 15 mL conical tubes. All samples were flash frozen in liquid nitrogen, and stored at −80° C. until further analysis. Individual ileum and ileum content weights were calculated and recorded for each sample.
# A sample of the digesta, which exists as a heterogenous solution containing insoluble particles, was used in the Coomassie Plus Protein Assay, as described herein, to determine protein concentration.
# [2] = rat, in vivo, po
# Description: Rat pharmacokinetic studies. Male Sprague Dawley rats with indwelling jugular vein cannula (JVC) were purchased from Harlan Laboratories and acclimated to the Test Facility (Agilux Laboratories) for at least two days prior to study initiation. Prior to dose administration animals were fasted overnight (11-13 h) and remained fasted until completion of the study. Test articles were orally administered via a bulb-tipped 18 gauge stainless steel gavage needle attached to a syringe. The weight of all dose syringes were recorded prior to and following dosing to more accurately determine the amount of solution dosed. Serial blood samples (˜300 μL) were collected from the JVC at time 0 (pre-dose) and 0.25, 0.5, 1, 2, and 4 h post-dose. Blood samples were collected into tubes containing the anti-coagulant K2EDTA, a general protease inhibitor cocktail (Sigma P8340, diluted 1:100 in whole blood), and a DPP IV inhibitor (Millipore DPP4, diluted 1:100 in whole blood). Immediately following blood collection tubes were vortexed and stored on wet ice until processing to plasma by centrifugation (3,500 rpm at 5° C.) within 1 h of collection. Plasma samples were then transferred into new tubes and stored at −80° C.
# The concentration of Glu, Ser, His, Gly, Thr, Arg, Ala, Tyr, Val, Met, Phe, Ile, Leu, and Lys in the plasma samples was determined by HPLC amino acid analysis, as described herein. Prior to HPLC amino acid analysis, insoluble particles were removed from plasma samples by centrifugation (1100×g at 4° C.) for 10 min. A 25 μL sample of the soluble fraction was then transferred to a 96-well plate, for some samples an internal standard (Norvaline, Agilent) was added to each plasma sample at final concentration of 0.5 mM.
# [3] = simulated gi fluid
molecule,measurement,setting,value
B1,total protein mass in digesta samples,[1],7.7 mg
same,bioavailability of amino acids (plasma free amino acids over 4 h),[2],"did not increase the bioavailability of Leucine or EAAs, it did increase the bioavailability of Serine and Threonine"
same,SGF Half-life (t½),[3],4.3 min
